Test results: patent US20260217833A1 (APTEVO RESEARCH AND DEVELOPMENT, published 2026)

B1: CD4001071 (bispecific antibody)
Fc-Knob x PDL_5F9: EPKSSDKTHTCPPCPAPPAAAPSVFLFPPKPKDTLMISRTPEVTCVVVDVSHEDPEVKFNWYVDGVEVHNAKTKPREEQYNSTYRVVSVLTVLHQDWLNGKEYKCAVSNKALPAPIEKTISKAKGQPREPQVYTLPPSRDELTKNQVSLWCLVKGFYPSDIAVEWESNGQPENNYKTTPPVLDSDGSFFLYSKLTVDKSRWQQGNVFSCSVMHEALHNHYTQKSLSLSPGGGGSPSEVQLVESGGGLVKPGGSLRLSCAASGFTFSDYGMAWVRQAPGKGLEWVAFITSLAYIIYYADSVKGRFTISRDNAKNSLYLQMNSLRAEDTAVYYCARNYGSSPYYFDYWGQGTLVTVSSGGGGSGGGGSGGGGSGGGGSDIQMTQSPSSLSASVGDRVTITCRASQDINKFLSWYQQKPGKAPKLLIHYTSSLQPGVPSRFSGSGSGTDFTLTISSLQPEDFATYYCLQYDNLYTFGQGTKLEIK
CD40_5B9 x Fc-Hole x PDL_5F9: DVVMTQTPLSLPVSLGDQASISCRSSQSLVHYNGYTYLHWYLQKPGQSPKLLIYKVSNRFSGVPDRFSGSGSGTDFTLKISRVEAEDLGVYFCSQTTHVPLTFGAGTKLELRGGGGSGGGGSGGGGSGGGGSEVMLVESGGGLVKPGGSLKLSCAASGFTFSSYAMSWVRQTPERRLEWVASISSAGTYIYYPDSVKGRFTISRDNAKNILYLQMNSLRSEDTAMYYCARHGNGYDPLWYFDVWGAGTTVTVSSEPKSSDKTHTCPPCPAPPAAAPSVFLFPPKPKDTLMISRTPEVTCVVVDVSHEDPEVKFNWYVDGVEVHNAKTKPREEQYNSTYRVVSVLTVLHQDWLNGKEYKCAVSNKALPAPIEKTISKAKGQPREPQVYTLPPSRDELTKNQVSLSCAVKGFYPSDIAVEWESNGQPENNYKTTPPVLDSDGSFFLVSKLTVDKSRWQQGNVFSCSVMHEALHNRFTQKSLSLSPGGGGSPSEVQLVESGGGLVKPGGSLRLSCAASGFTFSDYGMAWVRQAPGKGLEWVAFITSLAYIIYYADSVKGRFTISRDNAKNSLYLQMNSLRAEDTAVYYCARNYGSSPYYFDYWGQGTLVTVSSGGGGSGGGGSGGGGSGGGGSDIQMTQSPSSLSASVGDRVTITCRASQDINKFLSWYQQKPGKAPKLLIHYTSSLQPGVPSRFSGSGSGTDFTLTISSLQPEDFATYYCLQYDNLYTFGQGTKLEIK
B2: CD4001072 (bispecific antibody)
Fc-Knob x PDL_5F9: EPKSSDKTHTCPPCPAPPAAAPSVFLFPPKPKDTLMISRTPEVTCVVVDVSHEDPEVKFNWYVDGVEVHNAKTKPREEQYNSTYRVVSVLTVLHQDWLNGKEYKCAVSNKALPAPIEKTISKAKGQPREPQVYTLPPSRDELTKNQVSLWCLVKGFYPSDIAVEWESNGQPENNYKTTPPVLDSDGSFFLYSKLTVDKSRWQQGNVFSCSVMHEALHNHYTQKSLSLSPGGGGSPSEVQLVESGGGLVKPGGSLRLSCAASGFTFSDYGMAWVRQAPGKGLEWVAFITSLAYIIYYADSVKGRFTISRDNAKNSLYLQMNSLRAEDTAVYYCARNYGSSPYYFDYWGQGTLVTVSSGGGGSGGGGSGGGGSGGGGSDIQMTQSPSSLSASVGDRVTITCRASQDINKFLSWYQQKPGKAPKLLIHYTSSLQPGVPSRFSGSGSGTDFTLTISSLQPEDFATYYCLQYDNLYTFGQGTKLEIK
CD40_1D5 x Fc-Hole x PDL_5F9: DIVMSQSPSSLAVSVGEKVTMSCKSSQSLLFSVNQKNYLAWYQQKPGQSPKLLIYWASTRESGVPDRFTGSGSGTDFTLTIGSVKAEDLAVYYCQHYYSYPWTFGGGTKLEIKGGGGSGGGGSGGGGSGGGGSQVQLQQSGAELMNPGASVRISCKATGYTFSTSWIEWIKQRPGHGLEWIGEILPGSGSTNYNEKFKGKATFTADTSSNTAYMQLSSLTFEDSAVYYCARGDDGSYVRWYFDVWGAGTTVTVSSEPKSSDKTHTCPPCPAPPAAAPSVFLFPPKPKDTLMISRTPEVTCVVVDVSHEDPEVKFNWYVDGVEVHNAKTKPREEQYNSTYRVVSVLTVLHQDWLNGKEYKCAVSNKALPAPIEKTISKAKGQPREPQVYTLPPSRDELTKNQVSLSCAVKGFYPSDIAVEWESNGQPENNYKTTPPVLDSDGSFFLVSKLTVDKSRWQQGNVFSCSVMHEALHNRFTQKSLSLSPGGGGSPSEVQLVESGGGLVKPGGSLRLSCAASGFTFSDYGMAWVRQAPGKGLEWVAFITSLAYIIYYADSVKGRFTISRDNAKNSLYLQMNSLRAEDTAVYYCARNYGSSPYYFDYWGQGTLVTVSSGGGGSGGGGSGGGGSGGGGSDIQMTQSPSSLSASVGDRVTITCRASQDINKFLSWYQQKPGKAPKLLIHYTSSLQPGVPSRFSGSGSGTDFTLTISSLQPEDFATYYCLQYDNLYTFGQGTKLEIK
B3: CD4001069 (bispecific antibody)
PDL_5F9 x Fc-Knob: EVQLVESGGGLVKPGGSLRLSCAASGFTFSDYGMAWVRQAPGKGLEWVAFITSLAYIIYYADSVKGRFTISRDNAKNSLYLQMNSLRAEDTAVYYCARNYGSSPYYFDYWGQGTLVTVSSGGGGSGGGGSGGGGSGGGGSDIQMTQSPSSLSASVGDRVTITCRASQDINKFLSWYQQKPGKAPKLLIHYTSSLQPGVPSRFSGSGSGTDFTLTISSLQPEDFATYYCLQYDNLYTFGQGTKLEIKEPKSSDKTHTCPPCPAPPAAAPSVFLFPPKPKDTLMISRTPEVTCVVVDVSHEDPEVKFNWYVDGVEVHNAKTKPREEQYNSTYRVVSVLTVLHQDWLNGKEYKCAVSNKALPAPIEKTISKAKGQPREPQVYTLPPSRDELTKNQVSLWCLVKGFYPSDIAVEWESNGQPENNYKTTPPVLDSDGSFFLYSKLTVDKSRWQQGNVFSCSVMHEALHNHYTQKSLSLSPG
CD40_1D5 x Fc-Hole: DIVMSQSPSSLAVSVGEKVTMSCKSSQSLLFSVNQKNYLAWYQQKPGQSPKLLIYWASTRESGVPDRFTGSGSGTDFTLTIGSVKAEDLAVYYCQHYYSYPWTFGGGTKLEIKGGGGSGGGGSGGGGSGGGGSQVQLQQSGAELMNPGASVRISCKATGYTFSTSWIEWIKQRPGHGLEWIGEILPGSGSTNYNEKFKGKATFTADTSSNTAYMQLSSLTFEDSAVYYCARGDDGSYVRWYFDVWGAGTTVTVSSEPKSSDKTHTCPPCPAPPAAAPSVFLFPPKPKDTLMISRTPEVTCVVVDVSHEDPEVKFNWYVDGVEVHNAKTKPREEQYNSTYRVVSVLTVLHQDWLNGKEYKCAVSNKALPAPIEKTISKAKGQPREPQVYTLPPSRDELTKNQVSLSCAVKGFYPSDIAVEWESNGQPENNYKTTPPVLDSDGSFFLVSKLTVDKSRWQQGNVFSCSVMHEALHNRFTQKSLSLSPG
B4: CD4001076 (bispecific antibody)
PDL_5F9 x Fc-Knob: EVQLVESGGGLVKPGGSLRLSCAASGFTFSDYGMAWVRQAPGKGLEWVAFITSLAYIIYYADSVKGRFTISRDNAKNSLYLQMNSLRAEDTAVYYCARNYGSSPYYFDYWGQGTLVTVSSGGGGSGGGGSGGGGSGGGGSDIQMTQSPSSLSASVGDRVTITCRASQDINKFLSWYQQKPGKAPKLLIHYTSSLQPGVPSRFSGSGSGTDFTLTISSLQPEDFATYYCLQYDNLYTFGQGTKLEIKEPKSSDKTHTCPPCPAPPAAAPSVFLFPPKPKDTLMISRTPEVTCVVVDVSHEDPEVKFNWYVDGVEVHNAKTKPREEQYNSTYRVVSVLTVLHQDWLNGKEYKCAVSNKALPAPIEKTISKAKGQPREPQVYTLPPSRDELTKNQVSLWCLVKGFYPSDIAVEWESNGQPENNYKTTPPVLDSDGSFFLYSKLTVDKSRWQQGNVFSCSVMHEALHNHYTQKSLSLSPG
PDL_5F9 x Fc-Hole x CD40_2H7: EVQLVESGGGLVKPGGSLRLSCAASGFTFSDYGMAWVRQAPGKGLEWVAFITSLAYIIYYADSVKGRFTISRDNAKNSLYLQMNSLRAEDTAVYYCARNYGSSPYYFDYWGQGTLVTVSSGGGGSGGGGSGGGGSGGGGSDIQMTQSPSSLSASVGDRVTITCRASQDINKFLSWYQQKPGKAPKLLIHYTSSLQPGVPSRFSGSGSGTDFTLTISSLQPEDFATYYCLQYDNLYTFGQGTKLEIKEPKSSDKTHTCPPCPAPPAAAPSVFLFPPKPKDTLMISRTPEVTCVVVDVSHEDPEVKFNWYVDGVEVHNAKTKPREEQYNSTYRVVSVLTVLHQDWLNGKEYKCAVSNKALPAPIEKTISKAKGQPREPQVYTLPPSRDELTKNQVSLSCAVKGFYPSDIAVEWESNGQPENNYKTTPPVLDSDGSFFLVSKLTVDKSRWQQGNVFSCSVMHEALHNRFTQKSLSLSPGGGGSPSDIVMTQSHKFMSTSVGDRVSITCKASQDVNTAVAWYQQKPGQSPKLLIYSASYRYTGVPDRFTGSGSGTDFTFTISSVQAEDLAVYYCQQHYSTPWTFGGGTKLEIKGGGGSGGGGSGGGGSGGGGSQVQLQQSGAELAKPGASVKMSCKASGYAFTTYWMHWVKQRPGQGLEWIGYINPTTGYTDYNQKFKDKATLTADKSSSTAYMQLSSLTSEDSAVYYCARWGLPPFAYWGQGTLVTVSA
B5: CD4001075 (bispecific antibody)
CD40_1D5 x Fc-Knob: DIVMSQSPSSLAVSVGEKVTMSCKSSQSLLFSVNQKNYLAWYQQKPGQSPKLLIYWASTRESGVPDRFTGSGSGTDFTLTIGSVKAEDLAVYYCQHYYSYPWTFGGGTKLEIKGGGGSGGGGSGGGGSGGGGSQVQLQQSGAELMNPGASVRISCKATGYTFSTSWIEWIKQRPGHGLEWIGEILPGSGSTNYNEKFKGKATFTADTSSNTAYMQLSSLTFEDSAVYYCARGDDGSYVRWYFDVWGAGTTVTVSSEPKSSDKTHTCPPCPAPPAAAPSVFLFPPKPKDTLMISRTPEVTCVVVDVSHEDPEVKFNWYVDGVEVHNAKTKPREEQYNSTYRVVSVLTVLHQDWLNGKEYKCAVSNKALPAPIEKTISKAKGQPREPQVYTLPPSRDELTKNQVSLWCLVKGFYPSDIAVEWESNGQPENNYKTTPPVLDSDGSFFLYSKLTVDKSRWQQGNVFSCSVMHEALHNHYTQKSLSLSPG
CD40_1D5 x Fc-Hole x PDL_5F9: DIVMSQSPSSLAVSVGEKVTMSCKSSQSLLFSVNQKNYLAWYQQKPGQSPKLLIYWASTRESGVPDRFTGSGSGTDFTLTIGSVKAEDLAVYYCQHYYSYPWTFGGGTKLEIKGGGGSGGGGSGGGGSGGGGSQVQLQQSGAELMNPGASVRISCKATGYTFSTSWIEWIKQRPGHGLEWIGEILPGSGSTNYNEKFKGKATFTADTSSNTAYMQLSSLTFEDSAVYYCARGDDGSYVRWYFDVWGAGTTVTVSSEPKSSDKTHTCPPCPAPPAAAPSVFLFPPKPKDTLMISRTPEVTCVVVDVSHEDPEVKFNWYVDGVEVHNAKTKPREEQYNSTYRVVSVLTVLHQDWLNGKEYKCAVSNKALPAPIEKTISKAKGQPREPQVYTLPPSRDELTKNQVSLSCAVKGFYPSDIAVEWESNGQPENNYKTTPPVLDSDGSFFLVSKLTVDKSRWQQGNVFSCSVMHEALHNRFTQKSLSLSPGGGGSPSEVQLVESGGGLVKPGGSLRLSCAASGFTFSDYGMAWVRQAPGKGLEWVAFITSLAYIIYYADSVKGRFTISRDNAKNSLYLQMNSLRAEDTAVYYCARNYGSSPYYFDYWGQGTLVTVSSGGGGSGGGGSGGGGSGGGGSDIQMTQSPSSLSASVGDRVTITCRASQDINKFLSWYQQKPGKAPKLLIHYTSSLQPGVPSRFSGSGSGTDFTLTISSLQPEDFATYYCLQYDNLYTFGQGTKLEIK

The binders below were run against T1, Human PD-L1 full-length (human, UniProt Q9NZQ7 19-290) (assay: flow cytometry, CHOK1SV/human PD-L1 cells).
T1 construct: also called PDL01021; CHOK1SV/huPDL1
T1 sequence (Q9NZQ7 19-290): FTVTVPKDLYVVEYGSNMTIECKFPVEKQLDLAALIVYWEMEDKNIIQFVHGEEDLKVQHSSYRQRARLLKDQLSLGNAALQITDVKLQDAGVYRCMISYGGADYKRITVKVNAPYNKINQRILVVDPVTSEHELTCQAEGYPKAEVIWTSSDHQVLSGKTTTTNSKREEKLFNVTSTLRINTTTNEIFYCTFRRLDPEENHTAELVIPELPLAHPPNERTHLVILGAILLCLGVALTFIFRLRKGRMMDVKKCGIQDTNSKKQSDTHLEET

Q: Does B1 bind?
A: Result: binds

Q: Does B2 bind?
A: Result: binds

Q: Does B3 bind?
A: Result: binds

Q: Does B4 bind?
A: Result: binds

Q: Does B5 bind?
A: Result: binds
